Test results published in publication PMC2196246 (The Journal of Experimental Medicine, 1997).
No end group written: not given here.

Target: I-A^g7 (mouse (NOD; endogenous in 4G4.7 hybridoma))
Test: ELISA
Conditions: not given

Row | Substance | IC50
1 | HEL 9–17 (peptide) | > 50000 nM
2 | HEL 9–21 (peptide) | 300 nM
3 | HEL 9–22 (peptide) | 300 nM
4 | HEL 9–24 (peptide) | 200 nM
5 | HEL 9–25 (peptide) | 300 nM
6 | HEL 9–26 (peptide) | 300 nM
7 | HEL 9–27 (peptide) | 350 nM
8 | HEL 10–22 (peptide) | 295 nM
9 | HEL 10–22 A10L (peptide) | 300 nM
10 | HEL 10–22 A11Y (peptide) | 350 nM
11 | HEL 10–22 D18E (peptide) | < 1000 nM
12 | HEL 10–22 D18P (peptide) | 300 nM
13 | HEL 10–22 D18Q (peptide) | 200 nM
14 | HEL 10–22 D18R (peptide) | < 1000 nM
15 | HEL 10–22 D18Y (peptide) | 100 nM
16 | HEL 10–22 G16D (peptide) | 2000 nM
17 | HEL 10–22 G22A (peptide) | 350 nM
18 | HEL 10–22 G22P (peptide) | 650 nM
19 | HEL 10–22 G22Y (peptide) | 300 nM
20 | HEL 10–22 H15A (peptide) | 300 nM
21 | HEL 10–22 H15D (peptide) | 1750 nM
22 | HEL 10–22 K13A (peptide) | 300 nM
23 | HEL 10–22 K13Y (peptide) | 250 nM
24 | HEL 10–22 L17F (peptide) | 1000 to 10000 nM

Row | Substance | IC50
25 | HEL 10–22 L17H (peptide) | 1000 to 10000 nM
26 | HEL 10–22 L17I (peptide) | < 1000 nM
27 | HEL 10–22 L17M (peptide) | < 1000 nM
28 | HEL 10–22 L17N (peptide) | 1000 to 10000 nM
29 | HEL 10–22 L17T (peptide) | 1000 to 10000 nM
30 | HEL 10–22 L17V (peptide) | < 1000 nM
31 | HEL 10–22 N19D (peptide) | 2000 nM
32 | HEL 10–22 N19E (peptide) | 1000 to 10000 nM
33 | HEL 10–22 N19F (peptide) | 1000 to 10000 nM
34 | HEL 10–22 N19G (peptide) | < 1000 nM
35 | HEL 10–22 N19Q (peptide) | 2000 nM
36 | HEL 10–22 N19R (peptide) | 1000 to 10000 nM
37 | HEL 10–22 N19S (peptide) | < 1000 nM
38 | HEL 10–22 N19Y (peptide) | > 50000 nM
39 | HEL 10–22 R14A (peptide) | 300 nM
40 | HEL 10–22 R14G (peptide) | 1000 to 10000 nM
41 | HEL 10–22 R14S (peptide) | 1000 to 10000 nM
42 | HEL 10–22 R14W (peptide) | 1000 to 10000 nM
43 | HEL 10–22 R21K (peptide) | 350 nM
44 | HEL 10–22 R21P (peptide) | 350 nM
45 | HEL 10–22 R21Y (peptide) | 300 nM
46 | HEL 10–22 Y20F (peptide) | < 1000 nM
47 | HEL 10–22 Y20H (peptide) | 1000 to 10000 nM
48 | HEL 10–22 Y20M (peptide) | 1000 to 10000 nM

Row | Substance | IC50
49 | HEL 10–22 Y20N (peptide) | 1000 to 10000 nM
50 | HEL 10–22 Y20Q (peptide) | 2000 nM
51 | HEL 10–22 Y20R (peptide) | < 1000 nM
52 | HEL 10–22 Y20W (peptide) | 1000 to 10000 nM
53 | HEL 10–23 (peptide) | 295 nM
54 | HEL 10–27 (peptide) | 300 nM
55 | HEL 11–27 (peptide) | 300 nM
56 | HEL 12–23 (peptide) | 250 nM
57 | HEL 12–27 (peptide) | 300 nM
58 | HEL 13–22 (peptide) | 250 nM
59 | HEL 13–23 (peptide) | 200 nM
60 | HEL 13–27 (peptide) | 300 nM
61 | HEL 14–27 (peptide) | 2000 nM
62 | HEL 16–27 (peptide) | > 50000 nM
63 | HEL 17–27 (peptide) | > 50000 nM
64 | HEL 18–27 (peptide) | > 50000 nM
65 | HEL 19–27 (peptide) | > 50000 nM
66 | human proinsulin 5–19 (peptide) | 30000 nM
67 | human proinsulin 9–23 (peptide) | 1000 nM
68 | human proinsulin 21–35 (peptide) | 1000 nM
69 | human proinsulin 25–39 (peptide) | 1000 nM
70 | human proinsulin 49–63 (peptide) | 1000 nM

Target: T1, purified I-A^g7 (Mus musculus, UniProt P04228+Q31135)
T1 sequence (P04228 24-256): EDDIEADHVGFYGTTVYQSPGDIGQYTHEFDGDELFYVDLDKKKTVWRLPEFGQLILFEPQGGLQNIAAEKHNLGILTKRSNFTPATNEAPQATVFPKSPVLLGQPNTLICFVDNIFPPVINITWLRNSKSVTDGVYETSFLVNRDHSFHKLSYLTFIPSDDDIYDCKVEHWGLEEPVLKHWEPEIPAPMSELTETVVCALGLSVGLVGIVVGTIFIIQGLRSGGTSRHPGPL
T1 sequence (Q31135 1-263): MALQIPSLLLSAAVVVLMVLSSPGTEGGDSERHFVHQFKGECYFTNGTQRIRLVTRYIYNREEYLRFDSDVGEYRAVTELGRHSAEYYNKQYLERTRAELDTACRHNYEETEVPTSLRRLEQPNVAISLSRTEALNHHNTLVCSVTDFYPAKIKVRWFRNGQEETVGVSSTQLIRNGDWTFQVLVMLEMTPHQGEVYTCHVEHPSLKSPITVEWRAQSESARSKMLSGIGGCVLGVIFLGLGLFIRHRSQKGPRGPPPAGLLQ
Test: biochemical
Type: binding, NOD mouse
Conditions: not given

Row | Substance | IC50
71 | AAAMKRHGLDNYR-NH2 [HEL 9–21] | 300 nM
72 | AAAMKRHGLDNYRG-NH2 [HEL 9–22] | 300 nM
73 | AAAMKRHGLDNYRGYS-NH2 [HEL 9–24] | 200 nM
74 | AAAMKRHGLDNYRGYSL-NH2 [HEL 9–25] | 300 nM
75 | AAAMKRHGLDNYRGYSLG-NH2 [HEL 9–26] | 300 nM
76 | AAAMKRHGLDNYRGYSLGN-NH2 [HEL 9–27] | 350 nM
77 | AAMKRHGLDNYRGYSLGN-NH2 [HEL 10–27] | 300 nM
78 | AMKRHGLDNYRGYSLGN-NH2 [HEL 11–27] | 300 nM
79 | HGLDNYRGYSLGN-NH2 [HEL 15–27] | 20000 nM
80 | KRHGLDNYRG-NH2 [HEL 13–22] | 250 nM
81 | KRHGLDNYRGY-NH2 [HEL 13–23] | 200 nM
82 | KRHGLDNYRGYSLGN-NH2 [HEL 13–27] | 300 nM
83 | MKRHGLDNYRGY-NH2 [HEL 12–23] | 250 nM
84 | MKRHGLDNYRGYSLGN-NH2 [HEL 12–27] | 300 nM
85 | RHGLDNYRGYSLGN-NH2 [HEL 14–27] | 2000 nM

System: purified I-A^g7
Test: biochemical
Type: binding, NOD mouse
Conditions: not given

Row | Substance | binding to I-A^g7 (in words)
86 | KPKATAEQLKTVMDD [In serum albumin (560–574), reference compound] | did not bind

System: purified I-A^g7
Test: not given
Conditions: cited from earlier work

Row | Substance | direct binding to purified I-A^g7
87 | HEL 11–25: HEL peptide tested by Carrasco-Marin et al. (AMKRHGLDNYRGYSL; UniProt P00698 29-43, looked up, fragment) | unable to demonstrate direct binding
